The text below walks through data of US11155602B2, “Polypeptides targeting HIV fusion” (priority 2015, dated 2021).

This test concerns NL-Rluc virus. The test can be described thus: Combinectin potency assay: antiviral EC50, NL-Rluc virus in MT-2 cells, luciferase readout. The test is classed as cell-based, HIV-1. Particulars: Anti-N17 Adnectin, Table 3. Summed up: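 MT-2 cells infected with replication-competent NL-Rluc HIV (nef replaced by Renilla luciferase) at MOI 0.01 for 1 h, then added to threefold-diluted peptides (11 concentrations, triplicate). After 4–5 days, luciferase measured by Dual Luciferase; EC50 relative to no-peptide wells.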

B1: 317 (protein)
chain: MGHHHHHHGGSVSDVPRDLEVVAATPTSLLISWEYKVNAYRYYRITYGETGGNSPVQEFTVPSVLSTATISGLKPGVDYTITVYAVTYGDDSAPISINYRTEID
modifications: Adnectin
On to B1, for which the EC50 was > 1000 nM.

B2: 342 (protein)
chain: MGHHHHHHGGSVSDVPRDLEVVAATPTSLLISWEYKVHPYRYYRITYGETGGNSPVQEFTVPSVLSTATISGLKPGVDYTITVYAVTYGIDSAPISINYRTEID
modifications: Adnectin
B2: the EC50 was > 1000 nM.

B3: 349 (protein)
chain: MGHHHHHHGGSVSDVPRDLEVVAATPTSLLISWEYKVYAYRYYRITYGETGGNSPVQEFTVPSVLSTATISGLKPGVDYTITVYAVTYGDDSAPISINYRTEID
modifications: Adnectin
In the case of B3, the EC50 was > 1000 nM.

B4: 330 (protein)
chain: MGHHHHHHGGSVSDVPRDLEVVAATPTSLLISWEYKVHPYRYYRITYGETGGNSPVQEFTVPSVLSTATISGLKPGVDYTITVYAVTYGDDSPPISINYRTEID
modifications: Adnectin
For the molecule B4, the EC50 stood at 99 nM.

B5: 339 (protein)
chain: MGHHHHHHGGSVSDVPRDLEVVAATPTSLLISWEYKVSRWRYYRITYGETGGNSPVQEFTVPSVLSTATISGLKPGVDYTITVYAVTYGDDSAPISINYRTEID
modifications: Adnectin
As to B5, the EC50 was > 1000 nM.

B6: 323 (protein)
chain: MGHHHHHHGGSVSDVPRDLEVVAATPTSLLISWEYKVHPYRYYRITYGETGGNSPVQEFTVPSVLSTATISGLKPGVDYTITVYAVTYGDQSAPISINYRTEID
modifications: Adnectin
Regarding B6, the EC50 is 126 nM.

B7: 325 (protein)
chain: MGHHHHHHGGSVSDVPRDLEVVAATPTSLLISWEYKVNHDRYYRITYGETGGNSPVQEFTVPSVLSTATISGLKPGVDYTITVYAVTYGDDSAPISINYRTEID
modifications: Adnectin
Consider B7, for which the EC50 is > 1000 nM.

B8: 336 (protein)
chain: MGHHHHHHGGSVSDVPRDLEVVAATPTSLLISWEYKVHPYRYYRITYGETGGNSPVQEFTVPSVLSTATISGLKPGVDYTITVYAVTYGDDSDPISINYRTEID
modifications: Adnectin
As for B8, the EC50 turned out to be 171 nM.

B9: 322 (protein)
chain: MGHHHHHHGGSVSDVPRDLEVVAATPTSLLISWEYKVHPYRYYRITYGETGGNSPVQEFTVPSVLSTATISGLKPGVDYTITVYAVTYGTDSAPISINYRTEID
modifications: Adnectin
With B9, the EC50 is 96 nM.

B10: 348 (protein)
chain: MGHHHHHHGGSVSDVPRDLEVVAATPTSLLISWEYKVSTWRYYRITYGETGGNSPVQEFTVPSVLSTATISGLKPGVDYTITVYAVTYGDDSAPISINYRTEID
modifications: Adnectin
Take B10: the EC50 was > 1000 nM.

B11: 347 (protein)
chain: MGHHHHHHGGSVSDVPRDLEVVAATPTSLLISWEYKVNYRRYYRITYGETGGNSPVQEFTVPSVLSTATISGLKPGVDYTITVYAVTYGDDSAPISINYRTEID
modifications: Adnectin
As for B11, the concentration for a half-maximal effect (EC50) was > 1000 nM.

B12: 327 (protein)
chain: MGHHHHHHGGSVSDVPRDLEVVAATPTSLLISWEYKVTYERYYRITYGETGGNSPVQEFTVPSVLSTATISGLKPGVDYTITVYAVTYGDDSAPISINYRTEID
modifications: Adnectin
As to B12, the EC50 was > 1000 nM.

B13: 343 (protein)
chain: MGHHHHHHGGSVSDVPRDLEVVAATPTSLLISWEYKVHPYRYYRITYGETGGNSPVQEFTVPSVLSTATISGLKPGVDYTITVYAVTYGDHSAPISINYRTEID
modifications: Adnectin
For the molecule B13, the EC50 amounted to 122 nM.

B14: 329 (protein)
chain: MGHHHHHHGGSVSDVPRDLEVVAATPTSLLISWEYKVHPYRYYRITYGETGGNSPVQEFTVPSVLSTATISGLKPGVDYTITVYAVTYGDVSAPISINYRTEID
modifications: Adnectin
In the case of B14, the EC50 was 102 nM.

B15: 345 (protein)
chain: MGHHHHHHGGSVSDVPRDLEVVAATPTSLLISWEYKVHPYRYYRITYGETGGNSPVQEFTVPSVLSTATISGLKPGVDYTITVYAVTYGDDSRPISINYRTEID
modifications: Adnectin
Consider B15, for which the EC50 was > 1000 nM.

B16: 337 (protein)
chain: MGHHHHHHGGSVSDVPRDLEVVAATPTSLLISWEYKVHPYRYYRITYGETGGNSPVQEFTVPSVLSTATISGLKPGVDYTITVYAVTYGDDSYPISINYRTEID
modifications: Adnectin
B16: the half-maximal effective concentration (EC50) is > 1000 nM.

B17: 319 (protein)
chain: MGHHHHHHGGSVSDVPRDLEVVAATPTSLLISWEYKVSHGRYYRITYGETGGNSPVQEFTVPSVLSTATISGLKPGVDYTITVYAVTYGDDSAPISINYRTEID
modifications: Adnectin
Take B17: the EC50 was > 1000 nM.

B18: 318 (protein)
chain: MGHHHHHHGGSVSDVPRDLEVVAATPTSLLISWEYKVNGYRYYRITYGETGGNSPVQEFTVPSVLSTATISGLKPGVDYTITVYAVTYGDDSAPISINYRTEID
modifications: Adnectin
In the case of B18, the EC50 is > 1000 nM.

B19: 346 (protein)
chain: MGHHHHHHGGSVSDVPRDLEVVAATPTSLLISWEYKVHPYRYYRITYGETGGNSPVQEFTVPSVLSTATISGLKPGVDYTITVYAVTYGDDSAPISIQYRTEID
modifications: Adnectin
B19: the EC50 amounted to 83 nM.

B20: 320 (protein)
chain: MGHHHHHHGGSVSDVPRDLEVVAATPTSLLISWEYKVTTWRYYRITYGETGGNSPVQEFTVPSVLSTATISGLKPGVDYTITVYAVTYGDDSAPISINYRTEID
modifications: Adnectin
Turning to B20, the EC50 was > 1000 nM.

B21: 135 (protein)
chain: MGHHHHHHGGSVSDVPRDLEVVAATPTSLLISWKYNVNAYRYYRITYGETGGNSPVQEFTVPSVLSTATISGLKPGVDYTITVYAVTYGVHSSPISINYRTEID
modifications: Adnectin
Take B21: the EC50 is > 1000 nM.

B22: 344 (protein)
chain: MGHHHHHHGGSVSDVPRDLEVVAATPTSLLISWEYKVHPYRYYRITYGETGGNSPVQEFTVPSVLSTATISGLKPGVDYTITVYAVTYGDDSEPISINYRTEID
modifications: Adnectin
For B22, the EC50 is > 1000 nM.

B23: 324 (protein)
chain: MGHHHHHHGGSVSDVPRDLEVVAATPTSLLISWEYKVHPYRYYRITYGETGGNSPVQEFTVPSVLSTATISGLKPGVDYTITVYAVTYGDDSNPISINYRTEID
modifications: Adnectin
On to B23, for which the EC50 was 487 nM.

B24: 332 (protein)
chain: MGHHHHHHGGSVSDVPRDLEVVAATPTSLLISWEYKVNRWRYYRITYGETGGNSPVQEFTVPSVLSTATISGLKPGVDYTITVYAVTYGDDSAPISINYRTEID
modifications: Adnectin
Take B24: the EC50 is > 1000 nM.

B25: 326 (protein)
chain: MGHHHHHHGGSVSDVPRDLEVVAATPTSLLISWEYKVSHRRYYRITYGETGGNSPVQEFTVPSVLSTATISGLKPGVDYTITVYAVTYGDDSAPISINYRTEID
modifications: Adnectin
As to B25, the EC50 is > 1000 nM.

B26: 335 (protein)
chain: MGHHHHHHGGSVSDVPRDLEVVAATPTSLLISWEYKVHPYRYYRITYGETGGNSPVQEFTVPSVLSTATISGLKPGVDYTITVYAVTYGDESAPISINYRTEID
modifications: Adnectin
With B26, the EC50 is 112 nM.

B27: 334 (protein)
chain: MGHHHHHHGGSVSDVPRDLEVVAATPTSLLISWEYKVTYRRYYRITYGETGGNSPVQEFTVPSVLSTATISGLKPGVDYTITVYAVTYGDDSAPISINYRTEID
modifications: Adnectin
Regarding B27, the EC50 is > 1000 nM.

B28: 341 (protein)
chain: MGHHHHHHGGSVSDVPRDLEVVAATPTSLLISWEYKVHPYRYYRITYGETGGNSPVQSFTVPSVLSTATISGLKPGVDYTITVYAVTYGDDSAPISINYRTEID
modifications: Adnectin
Turning to B28, the EC50 is > 1000 nM.

B29: 333 (protein)
chain: MGHHHHHHGGSVSDVPRDLEVVAATPTSLLISWEYKVSPWRYYRITYGETGGNSPVQEFTVPSVLSTATISGLKPGVDYTITVYAVTYGDDSAPISINYRTEID
modifications: Adnectin
On to B29, for which the EC50 is > 1000 nM.

B30: 338 (protein)
chain: MGHHHHHHGGSVSDVPRDLEVVAATPTSLLISWEYKVNRYRYYRITYGETGGNSPVQEFTVPSVLSTATISGLKPGVDYTITVYAVTYGDDSAPISINYRTEID
modifications: Adnectin
Turning to B30, the EC50 was > 1000 nM.

B31: 321 (protein)
chain: MGHHHHHHGGSVSDVPRDLEVVAATPTSLLISWEYKVHPYRYYRITYGETGGNSPVQEFTVPSVLSSAXLSGLKPGVDYTITVYAVTYGDDSAPISINYRTEID
modifications: not fully specified
Turning to B31, the EC50 is 55 nM.

B32: 134 (protein)
chain: MGHHHHHHGGSVSDVPRDLEVVAATPTSLLISWDAPAVTVEQYYIAYYDEKEPSSYQYFRVPGSKSTATISGLKPGVEYAIFVNAVTRSGVLPEFSLPISINYRTEGS
modifications: Adnectin
For the molecule B32, the EC50 was 5 nM.

B33: 136 (protein)
chain: MGHHHHHHGGSVSDVPRDLEVVAATPTSLLISWDAPAVTVEQYYIGYYVEAEPSSYQYFFVPGSKSTATISGLKPGVDYAIFVNAVTASGRGPEYSLPISINYRTEGS
modifications: Adnectin
On to B33, for which the EC50 turned out to be 5 nM.

One may read the EC50 as the concentration giving half of the maximal effect.
